Data from patent KR20140116416A.

Target: H5 hemagglutinin expressed on transfected cells (pJK2b-HA5) (influenza A virus, subtype H5; strain not stated)
Assay: cell-based or functional assay

B1: 항체 4D9 (antibody 4D9), purified (antibody, V domains shown)
VH: QVTLRESGPGLVKPSETLSLTCTISGASINTDYWSWIRQPPGKGLEWIGYIYYRGRTNYNPSLRSRVTISVDTSKNQFSLQMTSMTAADTAVYYCARDVTGISRENAFDIWGQGTLVTVSS
VL: AIRMTQSPSSLSASVGDRVTITCRASQSISGYLNWYQQKPGKAPKLLIYAASSLQSGVPSRFSGSGSGTDFTLTISSLQPEDFATYYCQQSYSIPTTFGQGTRLEIK
  cell fusion inhibition: 50 to 60%
